In patent publication CN113521276A one finds 抑制干扰素诱导的Daudi细胞增殖活性 (0.8ng/ml IFNα.2b, CellTiter-Glo), 抑制干扰素诱导的HEK Blue IFNα/β细胞中STAT1/2磷酸化活性 (0.2ng/ml IFNα.2b, QUANTI-Blue OD630nm) and 抑制干扰素诱导的全血释放CXCL10/IP10活性 (8ng/ml IFNα.2b, 40ng/ml TNF-α, sandwich ELISA) data, which are given here for one substance.

In the assay the target is 人IFNAR1 on cells (HEK Blue IFNα/β cells, Daudi cells, human whole blood) (human) (UniProt P17181). Nature of the assay: cell-based or functional assay.
Sequence of 人IFNAR1 on cells (HEK Blue IFNα/β cells, Daudi cells, human whole blood) (human) (P17181 28-557): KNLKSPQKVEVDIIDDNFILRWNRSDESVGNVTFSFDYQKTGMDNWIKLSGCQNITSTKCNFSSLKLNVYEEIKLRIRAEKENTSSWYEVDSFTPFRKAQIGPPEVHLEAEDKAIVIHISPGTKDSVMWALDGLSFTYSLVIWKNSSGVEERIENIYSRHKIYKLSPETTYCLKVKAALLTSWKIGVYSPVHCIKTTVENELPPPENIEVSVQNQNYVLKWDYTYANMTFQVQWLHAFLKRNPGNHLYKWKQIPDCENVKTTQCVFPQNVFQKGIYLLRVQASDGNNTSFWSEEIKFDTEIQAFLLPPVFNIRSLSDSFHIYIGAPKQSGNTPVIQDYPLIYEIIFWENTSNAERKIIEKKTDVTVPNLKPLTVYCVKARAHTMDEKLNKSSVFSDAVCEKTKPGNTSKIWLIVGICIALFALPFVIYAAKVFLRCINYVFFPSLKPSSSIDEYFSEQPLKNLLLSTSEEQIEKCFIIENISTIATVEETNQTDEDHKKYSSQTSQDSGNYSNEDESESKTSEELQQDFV

In the case of Anifrolumab (antibody), the 抑制干扰素诱导的Daudi细胞增殖活性 (0.8ng/ml IFNα.2b, CellTiter-Glo) was found to be 31.7 ng/mL; the 抑制干扰素诱导的HEK Blue IFNα/β细胞中STAT1/2磷酸化活性 (0.2ng/ml IFNα.2b, QUANTI-Blue OD630nm) came out at 4.43 ng/mL; the 抑制干扰素诱导的全血释放CXCL10/IP10活性 (8ng/ml IFNα.2b, 40ng/ml TNF-α, sandwich ELISA) stood at 562 ng/mL.
